The labels stand for the following.
B1: H183/L072 VH Y55L (antibody, name in Kabat numbering, V domains shown)
VH: QVQLVESGGGLVQPGRSLRLSCAASGFTFSNAWMHWVRQAPGKGLEWVAQIKDKGNALAAYYAPSVKGRFTISRDDSKNSIYLQMNSLKTEDTAVYYCHYVHYASASTVLPAFGVDAWGQGTTVTVSS
VL: DIVMTQSPLSLPVTPGEPASISCQASQELVHMNRNTYLHWYQQKPGQAPRLLIYKVSNRFPGVPDRFSGSGSGTDFTLKISRVEAEDVGVYYCAQGTSVPFTFGQGTKLEIK
B2: H183/L072 VH Y59K (antibody, name in Kabat numbering, V domains shown)
VH: B1 VH with L58Y, Y62K
VL: B1 VL
B3: H183/L072 VH Y58G (antibody, name in Kabat numbering, V domains shown)
VH: B1 VH with L58Y, Y61G
VL: B1 VL
B4: H183/L072 VH Y59A (antibody, name in Kabat numbering, V domains shown)
VH: B1 VH with L58Y, Y62A
VL: B1 VL
B5: H183/L072 VH Y59E (antibody, name in Kabat numbering, V domains shown)
VH: B1 VH with L58Y, Y62E
VL: B1 VL
B6: H183/L072 VH Y59R (antibody, name in Kabat numbering, V domains shown)
VH: B1 VH with L58Y, Y62R
VL: B1 VL
B7: H183/L072 VH Y58R (antibody, name in Kabat numbering, V domains shown)
VH: B1 VH with L58Y, Y61R
VL: B1 VL
B8: H183/L072 VH Y58W (antibody, name in Kabat numbering, V domains shown)
VH: B1 VH with L58Y, Y61W
VL: B1 VL
B9: H183/L072 VH Y59P (antibody, name in Kabat numbering, V domains shown)
VH: B1 VH with L58Y, Y62P
VL: B1 VL
B10: H183/L072 VH Y59I (antibody, name in Kabat numbering, V domains shown)
VH: B1 VH with L58Y, Y62I
VL: B1 VL
B11: H183/L072 VH Y94M (antibody, name in Kabat numbering, V domains shown)
VH: B1 VH with L58Y, Y100M
VL: B1 VL
B12: H183/L072 VH Y58S (antibody, name in Kabat numbering, V domains shown)
VH: B1 VH with L58Y, Y61S
VL: B1 VL
B13: H183/L072 VH Y58V (antibody, name in Kabat numbering, V domains shown)
VH: B1 VH with L58Y, Y61V
VL: B1 VL
B14: H183/L072 VH Y59S (antibody, name in Kabat numbering, V domains shown)
VH: B1 VH with L58Y, Y62S
VL: B1 VL
B15: H183/L072 VH Y58T (antibody, name in Kabat numbering, V domains shown)
VH: B1 VH with L58Y, Y61T
VL: B1 VL
B16: H183/L072 VH Y55N (antibody, name in Kabat numbering, V domains shown)
VH: B1 VH with L58N
VL: B1 VL
B17: H183/L072 VH Y58A (antibody, name in Kabat numbering, V domains shown)
VH: B1 VH with L58Y, Y61A
VL: B1 VL
B18: H183/L072 VH Y59H (antibody, name in Kabat numbering, V domains shown)
VH: B1 VH with L58Y, Y62H
VL: B1 VL
B19: H183/L072 VH Y58D (antibody, name in Kabat numbering, V domains shown)
VH: B1 VH with L58Y, Y61D
VL: B1 VL
B20: H183/L072 VH Y59N (antibody, name in Kabat numbering, V domains shown)
VH: B1 VH with L58Y, Y62N
VL: B1 VL
B21: H183/L072 VH Y59L (antibody, name in Kabat numbering, V domains shown)
VH: B1 VH with L58Y, Y62L
VL: B1 VL
B22: H183/L072 VH Y55Q (antibody, name in Kabat numbering, V domains shown)
VH: B1 VH with L58Q
VL: B1 VL
B23: H183/L072 VH Y58K (antibody, name in Kabat numbering, V domains shown)
VH: B1 VH with L58Y, Y61K
VL: B1 VL
B24: H183/L072 VH Y58N (antibody, name in Kabat numbering, V domains shown)
VH: B1 VH with L58Y, Y61N
VL: B1 VL
B25: H183/L072 VH Y94A (antibody, name in Kabat numbering, V domains shown)
VH: B1 VH with L58Y, Y100A
VL: B1 VL
B26: H183/L072 VH Y59M (antibody, name in Kabat numbering, V domains shown)
VH: B1 VH with L58Y, Y62M
VL: B1 VL
B27: H183/L072 VH Y59V (antibody, name in Kabat numbering, V domains shown)
VH: B1 VH with L58Y, Y62V
VL: B1 VL
B28: H183/L072 VH Y58L (antibody, name in Kabat numbering, V domains shown)
VH: B1 VH with L58Y, Y61L
VL: B1 VL
B29: H183/L072 VH Y59Q (antibody, name in Kabat numbering, V domains shown)
VH: B1 VH with L58Y, Y62Q
VL: B1 VL
B30: H183/L072 VH Y94I (antibody, name in Kabat numbering, V domains shown)
VH: B1 VH with L58Y, Y100I
VL: B1 VL
B31: H183/L072 VH Y59D (antibody, name in Kabat numbering, V domains shown)
VH: B1 VH with L58Y, Y62D
VL: B1 VL
B32: H183/L072 VH Y58H (antibody, name in Kabat numbering, V domains shown)
VH: B1 VH with L58Y, Y61H
VL: B1 VL
B33: H183/L072 VH Y58Q (antibody, name in Kabat numbering, V domains shown)
VH: B1 VH with L58Y, Y61Q
VL: B1 VL
B34: H183/L072 VH Y58F (antibody, name in Kabat numbering, V domains shown)
VH: B1 VH with L58Y, Y61F
VL: B1 VL
B35: H183/L072 VH Y94L (antibody, name in Kabat numbering, V domains shown)
VH: B1 VH with L58Y, Y100L
VL: B1 VL
B36: H183/L072 VH Y59G (antibody, name in Kabat numbering, V domains shown)
VH: B1 VH with L58Y, Y62G
VL: B1 VL
B37: H183/L072 VH Y58I (antibody, name in Kabat numbering, V domains shown)
VH: B1 VH with L58Y, Y61I
VL: B1 VL
B38: H183/L072 VH Y58M (antibody, name in Kabat numbering, V domains shown)
VH: B1 VH with L58Y, Y61M
VL: B1 VL
B39: H183/L072 VH Y58P (antibody, name in Kabat numbering, V domains shown)
VH: B1 VH with L58Y, Y61P
VL: B1 VL
B40: H183/L072 VH Y58E (antibody, name in Kabat numbering, V domains shown)
VH: B1 VH with L58Y, Y61E
VL: B1 VL
B41: H183/L072 VH Y59T (antibody, name in Kabat numbering, V domains shown)
VH: B1 VH with L58Y, Y62T
VL: B1 VL
B42: H183/L072 VH Y59F (antibody, name in Kabat numbering, V domains shown)
VH: B1 VH with L58Y, Y62F
VL: B1 VL
B43: H183/L072 VH Y59W (antibody, name in Kabat numbering, V domains shown)
VH: B1 VH with L58Y, Y62W
VL: B1 VL
B44: H183/L072 VH Y55M (antibody, name in Kabat numbering, V domains shown)
VH: B1 VH with L58M
VL: B1 VL

The text below walks through data of patent publication US20210388087A1 (Chugai, published 2021).

Residue numbers refer to the chain shown, from its start. Numbers in names are those of the source.

The target of the test is T1, Human CD137 ECD (human).
T1 construct: also called 4-1BB
T1 sequence (chain, as listed by the source limits assumed): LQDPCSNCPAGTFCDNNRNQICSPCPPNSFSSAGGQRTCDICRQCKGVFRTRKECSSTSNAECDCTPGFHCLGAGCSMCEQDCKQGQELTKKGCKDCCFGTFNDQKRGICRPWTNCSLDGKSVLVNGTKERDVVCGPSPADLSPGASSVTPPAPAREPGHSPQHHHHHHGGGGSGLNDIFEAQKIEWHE
As to the kind of experiment: single mutant vs template dBBDu183H.
B1: the “fold change of affinity” value was 0.3 fold.

B2: the “fold change of affinity” value was determined as 1 fold.

Regarding B3, the “fold change of affinity” value came to 0.2 fold.

For the molecule B4, the “fold change of affinity” value was 0.7 fold.

For the molecule B5, the “fold change of affinity” value worked out at 0.7 fold.

For the molecule B6, the “fold change of affinity” value came out at 0.9 fold.

On to B7, for which the “fold change of affinity” value came out at 0.4 fold.

In the case of B8, the “fold change of affinity” value came to 0.2 fold.

Turning to B9, the “fold change of affinity” value was determined as 0.3 fold.

In the case of B10, the “fold change of affinity” value came to 0.7 fold.

Regarding B11, the “fold change of affinity” value was 3.2 fold.

Turning to B12, the “fold change of affinity” value was determined as 0.3 fold.

Regarding B13, the “fold change of affinity” value was determined as 0.2 fold.

Turning to B14, the “fold change of affinity” value came to 0.8 fold.

Consider B15, for which the “fold change of affinity” value worked out at 0.3 fold.

For B16, the “fold change of affinity” value worked out at 0.7 fold.

With B17, the “fold change of affinity” value was determined as 0.2 fold.

For the molecule B18, the “fold change of affinity” value was 0.8 fold.

In the case of B19, the “fold change of affinity” value was determined as 0.1 fold.

With B20, the “fold change of affinity” value turned out to be 0.8 fold.

As to B21, the “fold change of affinity” value amounted to 1.1 fold.

For the molecule B22, the “fold change of affinity” value was 0.2 fold.

As to B23, the “fold change of affinity” value came to 0.3 fold.

In the case of B24, the “fold change of affinity” value was found to be 0.3 fold.

In the case of B25, the “fold change of affinity” value turned out to be 0 fold.

For B26, the “fold change of affinity” value stood at 1.1 fold.

Regarding B27, the “fold change of affinity” value is 0.8 fold.

With B28, the “fold change of affinity” value was 0.4 fold.

On to B29, for which the “fold change of affinity” value stood at 0.8 fold.

On to B30, for which the “fold change of affinity” value turned out to be 0 fold.

Consider B31, for which the “fold change of affinity” value is 0.8 fold.

Take B32: the “fold change of affinity” value was determined as 0.3 fold.

Turning to B33, the “fold change of affinity” value amounted to 0.4 fold.

Consider B34, for which the “fold change of affinity” value amounted to 0.9 fold.

In the case of B35, the “fold change of affinity” value worked out at 0 fold.

As to B36, the “fold change of affinity” value was 0.9 fold.

Regarding B37, the “fold change of affinity” value came out at 0.2 fold.

As for B38, the “fold change of affinity” value amounted to 0.6 fold.

For B39, the “fold change of affinity” value turned out to be 0.2 fold.

For B40, the “fold change of affinity” value stood at 0.3 fold.

With B41, the “fold change of affinity” value is 0.8 fold.

With B42, the “fold change of affinity” value turned out to be 1.5 fold.

B43: the “fold change of affinity” value amounted to 1.5 fold.

Turning to B44, the “fold change of affinity” value came to 0.4 fold.
